Measured values: patent US20250154272A1 (Astellas, published 2025)
Where two headings read alike, the source gives them in different places.

Columns and labels:
[1] = target: T1, human CLDN4 expressed on CHO-K1 cells (human, UniProt O14493 1-209); test: flow cytometry on human CLDN4 expressing CHO-K1, apparent KD
T1 construct: whole, on cells; also called human CLDN4 expressing CHO-K1
T1 sequence (looked up): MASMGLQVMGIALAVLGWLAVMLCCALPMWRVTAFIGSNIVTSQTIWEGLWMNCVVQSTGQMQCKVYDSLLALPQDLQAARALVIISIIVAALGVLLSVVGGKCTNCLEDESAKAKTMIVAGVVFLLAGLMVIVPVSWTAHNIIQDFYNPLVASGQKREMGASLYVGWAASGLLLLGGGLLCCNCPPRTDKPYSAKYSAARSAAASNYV

[2] = target: T2, human CD137-His tag protein (R&D Systems, 9220-4B) (human, UniProt Q07011 24-186); test: SPR, Biacore T200, antibody captured on Protein A chip, CD137 as analyte
T2 construct: Bought protein; not shown: His tag of the bought protein

[3] = target: T3, monkey CD137-His tag-3×FLAG tag fusion protein (monkey); test: as above
T3 construct: Residues 1-183 are the encoded extracellular region as stated; also called Monkey CD137-His-3 × FLAG
T3 chain: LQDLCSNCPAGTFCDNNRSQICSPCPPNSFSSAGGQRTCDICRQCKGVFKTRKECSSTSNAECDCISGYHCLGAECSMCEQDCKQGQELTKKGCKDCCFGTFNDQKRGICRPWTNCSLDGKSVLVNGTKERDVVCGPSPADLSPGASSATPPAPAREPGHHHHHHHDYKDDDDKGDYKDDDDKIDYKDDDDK

[4] = target: T2, human CD137-His tag protein (R&D …); test: ELISA, human CD137-His tag protein immobilized on the plate, anti-human IgG Fc-HRP, A450-A570
[5] = target: T2, human CD137-His tag protein (R&D …); test: as above; remark: listed apart in the source
[6] = target: T2, human CD137-His tag protein (R&D …); test: as above; remark: listed apart in the source
[7] = target: T4, human CLDN4-Myc-DDK expressed on CHO-K1 cells (human, UniProt O14493 1-209); test: binding experiment on human CLDN4-Myc-DDK expressing CHO-K1 cells
T4 construct: whole, on cells; also called human CLDN4-Myc-DDK expressing CHO-K1 cells; not shown: Myc-DDK tag of the ORIGENE construct
T4 sequence (looked up): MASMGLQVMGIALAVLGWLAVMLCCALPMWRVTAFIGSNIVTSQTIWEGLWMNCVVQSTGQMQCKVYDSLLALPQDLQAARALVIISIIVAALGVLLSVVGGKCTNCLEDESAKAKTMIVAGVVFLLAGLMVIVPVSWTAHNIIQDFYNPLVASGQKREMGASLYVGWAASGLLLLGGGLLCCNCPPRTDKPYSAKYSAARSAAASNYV

[8] = target: T5, human EpCAM-Myc-DDK expressed on CHO-K1 cells (human, UniProt P16422 24-314); test: flow cytometry of the clone supernatant on human EpCAM-Myc-DDK expressing CHO-K1 cells
T5 construct: whole, on cells; also called EpCAM expressing cells; not shown: Myc-DDK tag of the ORIGENE construct
T5 sequence (looked up): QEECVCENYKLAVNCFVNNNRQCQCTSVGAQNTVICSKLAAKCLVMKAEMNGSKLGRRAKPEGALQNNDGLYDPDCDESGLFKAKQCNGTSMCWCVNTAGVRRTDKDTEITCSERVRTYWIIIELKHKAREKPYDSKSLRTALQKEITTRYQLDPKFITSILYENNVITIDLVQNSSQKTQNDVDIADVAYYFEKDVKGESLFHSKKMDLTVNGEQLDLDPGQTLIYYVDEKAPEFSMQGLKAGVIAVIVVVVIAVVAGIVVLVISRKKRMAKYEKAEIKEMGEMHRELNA

Row | Kd [1] [nM] | Kd [2] [nM] | koff [2] [s⁻¹] | kon [2] [M⁻¹ s⁻¹] | Kd [3] [nM] | koff [3] [s⁻¹] | kon [3] [M⁻¹ s⁻¹] | EC50 (read off the curve) [4] [ng/mL] | EC50 (read off the curve) [5] [ng/mL] | EC50 (read off the curve) [6] [ng/mL] | binding result [4] | binding result [7] | binding result [8] | Binder
1 | 11.2 | 5.81 | 0.00135 | 232000 | 10.7 | 0.00191 | 179000 | ~8 | ~10 | ~6 |  |  |  | anti-CLDN4 (hKM3900)/anti-CD137 scFv bispecific antibody hKM3900_3-34-j6 (bispecific antibody, human IgG1, kappa, L234A L235A, The heavy chain entry holds the hKM3900 heavy chain (L234A, L235A, P331G), the linker and the 3-34-j6 scFv) heavy: not shown light: DIQLTQSPSSLSASVGDRVTITCTASSTVSSTYLHWYQQKPGKAPKLLIYSTSNLASGVPSRFSGSGSGTDYTLTISSLQPEDFATYYCHQYHRSPPTFGQGTKLEIKRTVAAPSVFIFPPSDEQLKSGTASVVCLLNNFYPREAKVQWKVDNALQSGNSQESVTEQDSKDSTYSLSSTLTLSKADYEKHKVYACEVTHQGLSSPVTKSFNRGEC
2 |  |  |  |  |  |  |  |  |  |  |  | binds | no binding | 3D11 antibody (antibody, V domains shown, Purified from the hybridoma supernatant of a VelocImmune mouse: human variable regions with mouse constant regions (chimeric antibody); also called 3D11 clone) VH: QVQLGQSGPEVKKPGASVKVSCKASGYSFISYGISWVRQAPGQGLEWMGWSSVYNGNTNYVQKFQGRVTMTTDTSASTAYMELRSLRSDDAAVYYCARDSYSSGWSYYYSGMDVWGQGTTVTVSS VL: not shown

More lines, now with the values behind:

Row | Binder | Kd [1] [nM] | Kd [2] [nM] | koff [2] [s⁻¹] | kon [2] [M⁻¹ s⁻¹] | Kd [3] [nM] | koff [3] [s⁻¹] | kon [3] [M⁻¹ s⁻¹] | EC50 (read off the curve) [4] [ng/mL] | EC50 (read off the curve) [5] [ng/mL] | EC50 (read off the curve) [6] [ng/mL] | binding result [4] | binding result [7] | binding result [8]
3 | anti-CLDN4 (hKM3900)/anti-CD137 scFv bispecific antibody hKM3900_tA2-32LH (bispecific antibody, human IgG1, kappa, L234A L235A, The heavy chain entry holds the hKM3900 heavy chain (L234A, L235A, P331G), the linker and the tA2-32LH scFv) heavy: not shown light: DIQLTQSPSSLSASVGDRVTITCTASSTVSSTYLHWYQQKPGKAPKLLIYSTSNLASGVPSRFSGSGSGTDYTLTISSLQPEDFATYYCHQYHRSPPTFGQGTKLEIKRTVAAPSVFIFPPSDEQLKSGTASVVCLLNNFYPREAKVQWKVDNALQSGNSQESVTEQDSKDSTYSLSSTLTLSKADYEKHKVYACEVTHQGLSSPVTKSFNRGEC | 10.8 | 5.84 | 0.00219 | 374000 | 6.68 | 0.00192 | 288000 | ~8 | ~10 |  |  |  | 
4 | anti-CLDN4 (hKM3900)/anti-CD137 scFv bispecific antibody hKM3900_L-3-34-j6 (bispecific antibody, scFv at the light chain C-terminus; not shown: human IgG1 heavy chain constant region; mutation positions by EU index; GS linker) heavy: EVQLVQSGAEVKKPGASVKISCKASGYTFTDYYMNWVRQAPGQGLEWMGDVVPNNGVPTYNQKFKGRVTITADKSTSTAYMELRSLRSEDTAVYYCARPHYYYAGRSGAMDYWGQGTLVTVSS light (part 1 of 2): DIQLTQSPSSLSASVGDRVTITCTASSTVSSTYLHWYQQKPGKAPKLLIYSTSNLASGVPSRFSGSGSGTDYTLTISSLQPEDFATYYCHQYHRSPPTFGQGTKLEIKRTVAAPSVFIFPPSDEQLKSGTASVVCLLNNFYPREAKVQWKVDNALQSGNSQESVTEQDSKDSTYSLSSTLTLSKADYEKHKVYACEVTHQGLSSPVTKSFNRGEC light (part 2 of 2): EVQLLESGGGLVQPGESLRLSCKAFGYTFTNHHINWVRQAPGKCLEWVGYINPYNDYTTFNDKFKDRFTLSVDKSKSTAYLQMNSLRAEDTAVYYCARTWGHWYFDLWGQGTLVTVSSGGGGSGGGGSGGGGSNIQMTQSPSSLSASVGDRVTITCRASQSVSSNLAWYQQKPGKAPKLLIYDSSTRATGVPSRFSGSGSGTDFTLTISSLQPEDFATYYCQQYNNWPPWTFGCGTKLEIKR |  |  |  |  |  |  |  |  |  | ~4 |  |  | 
5 | humanized anti-CLDN4 (hKM3900) antibody (antibody, V domains shown) VH: EVQLVQSGAEVKKPGASVKISCKASGYTFTDYYMNWVRQAPGQGLEWMGDVVPNNGVPTYNQKFKGRVTITADKSTSTAYMELRSLRSEDTAVYYCARPHYYYAGRSGAMDYWGQGTLVTVSS VL: DIQLTQSPSSLSASVGDRVTITCTASSTVSSTYLHWYQQKPGKAPKLLIYSTSNLASGVPSRFSGSGSGTDYTLTISSLQPEDFATYYCHQYHRSPPTFGQGTKLEIKR | 10.8 |  |  |  |  |  |  |  |  |  | no binding (tested: 1000 ng/mL) |  | 
